The record followed here is patent publication US20260201030A1 (EVOPOINT BIOSCIENCES, published 2026).

Experiment [1] has as its target T1, human Claudin18.2 (human, UniProt P56856-2 1-261). In words: cell-based or functional assay.
The target in experiment [2] is T1, human Claudin18.2. In words: FACS on NUGC4-Claudin18.2 (human) cells. The protocol: (§1) The affinity of the anti-human Claudin18.2 humanized antibodies was detected by flow cytometry. The experimental procedures were as follows: The adherent cultured HEK293T-Claudin18.2 (human), NUGC4-Claudin18.2 (human) and NUGC4 cells were digested, collected by centrifugation, and washed three times with pre-cooled PBS. The cells were resuspended in 1% BSA (in PBS) and added to a 96-well pointed bottom plate at 3×10⁵ cells/well, with a volume of 50 μL per well. Each test antibody was diluted with 1% BSA (in PBS) (starting at 100 μg/mL, diluted in a 3-fold gradient, for 10 concentration points). The test antibody subjected to gradient dilution was added to the cells at 50 μL/well, and the mixture was well mixed and incubated at 4° C. for 1 h. The cells were collected by centrifugation, washed three times with pre-cooled PBS, and resuspended in 50 μL of 1% BSA (in PBS). 1 μL of a fluorescent secondary antibody (Biolegend-410712) was added to each well, and the mixture was well mixed and incubated at 4° C. for 0.5 h. The cells were collected by centrifugation, washed three times with pre-cooled PBS, resuspended in 200 μL of PBS, and assayed on a machine.

Experiment [3] addresses T1, human Claudin18.2. As to the kind of experiment: FACS on HEK293T-Claudin18.2 (human) cells. The protocol: as §1
The target in experiment [4] is T2, mouse Claudin18.2 (mouse, UniProt P56857-3 1-264, limits assumed).
T2 construct: whole, on cells; also called HEK293T-Claudin18.2 (mouse)
T2 sequence (P56857 other isoform, or with tags, fused parts or gaps limits assumed): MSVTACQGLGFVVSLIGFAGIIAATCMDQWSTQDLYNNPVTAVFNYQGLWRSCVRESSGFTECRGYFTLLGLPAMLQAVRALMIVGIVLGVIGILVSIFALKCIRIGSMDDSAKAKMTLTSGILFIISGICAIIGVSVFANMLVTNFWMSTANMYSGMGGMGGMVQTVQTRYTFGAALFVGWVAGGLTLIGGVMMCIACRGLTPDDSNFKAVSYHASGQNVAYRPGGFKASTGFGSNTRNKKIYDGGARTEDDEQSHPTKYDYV
In words: FACS on HEK293T-Claudin18.2 (mouse) cells. The protocol: The mixture was incubated at 4° C. for 0.5 h, and the cells were washed three times with pre-cooled PBS, then resuspended, and assayed on a flow cytometer.

The target of experiment [5] is T1, human Claudin18.2. In words: cell-based ELISA on L929-Claudin18.2 (human) cells.
The target of experiment [6] is T1, human Claudin18.2. In words: cell-based ELISA on NUGC4-Claudin18.2 (human) cells. For orientation: ELISA stands for enzyme-linked immunosorbent assay.
The target in experiment [7] is T1, human Claudin18.2. In words: cell-based ELISA on HEK293T-Claudin18.2 (human) cells. The protocol: The affinity of the anti-human Claudin18.2 murine monoclonal antibodies was evaluated by cell-based ELISA. The experimental procedures were as follows: The day before the experiment, HEK293T-Claudin18.2 (human) cells were plated in a 96-well plate at 5×10⁴ cells/well. On the day of the experiment, the supernatant was removed, the cells in each well were washed once with 300 μL of PBS, and 100 μL of 4% paraformaldehyde was added to each well for fixation at room temperature for 20 min. Paraformaldehyde was then removed, and the cells in each well were washed twice with 300 μL of PBS. 100 μL of 2% BSA (in PBS) was added to each well, and the mixture was blocked at 37° C. for 2 h. After removing the blocking solution, each antibody subjected to gradient dilution (diluted with 2% BSA (in PBS), starting at […], in a 3-fold gradient, for a total of 11 concentration points) was added to the plate at 100 μL/well, and the mixture was incubated at 37° C. for 2 h. The supernatant was removed, and the cells in each well were washed three times with 300 μL of PBST. […] The reaction was stopped by adding 50 μL of 2 N HCl to each well, and OD_{450 nm} values were read on a microplate reader (manufacturer: MD, model: SpectraMax). […]
The affinity of the anti-human Claudin18.2 humanized monoclonal antibodies was determined by cell-based ELISA. […]

Experiment [8] addresses T3, human Claudin18.1 (human, UniProt P56856 1-261).
T3 construct: whole, on cells; also called CLDN18.1; HEK293T-Claudin18.1 (human)
In words: FACS on HEK293T-Claudin18.1 (human) cells, antibody 50 µg/mL. The protocol: The specificity of the anti-human Claudin18.2 humanized monoclonal antibodies was determined by flow cytometry (FACS). The experimental procedures were as follows: HEK293T-Claudin18.1 (human) cells were digested, collected by centrifugation, washed three times with pre-cooled PBS, resuspended in 1% BSA (in PBS), and added to a 96-well pointed bottom plate at 3×10⁵ cells/well. Each test antibody with a final concentration of 50 μg/mL was added, and the mixture was incubated at 4° C. for 1 h. The cells were washed three times with pre-cooled PBS, and then 1 μL of a fluorescent secondary antibody (APC: Biolegend-410712 or PE: BioLegend-410708) was added to each well. The mixture was incubated at 4° C. for 0.5 h, and the cells were washed three times with pre-cooled PBS, then resuspended, and assayed on a flow cytometer. For reference, anti-human Claudin18.1 positive control antibodies (positive control antibody-1 and positive control antibody-2) were included in the experiment.

The target in experiment [9] is T1, human Claudin18.2. As to the kind of experiment: cell-based ELISA on NUGC4 cells (endogenous human Claudin18.2).
For experiment [10], the target named is T1, human Claudin18.2. In words: cell-based ELISA (OD450) on NUGC4 cells (endogenous human Claudin18.2).
For experiment [11], the target named is T1, human Claudin18.2. As to the kind of experiment: cell-based ELISA on L929-claudin 18.2 (human) and NUGC4 cells, ADC.

B1: 25C7A5-HZ1 (antibody, human IgG1, kappa)
heavy: not shown
light: EIVLTQSPATLSLSPGERATLSCKASENVKTYVSWYQQKPGQSPRLLIYEASNRYTGVPARFSGSGSATDFTLTISSLEPEDFAVYFCGQTYSFPPTFGQGTKVEIKRTVAAPSVFIFPPSDEQLKSGTASVVCLLNNFYPREAKVQWKVDNALQSGNSQESVTEQDSKDSTYSLSSTLTLSKADYEKHKVYACEVTHQGLSSPVTKSFNRGEC
notes: Humanized IgG1/kappa
Usually EC50 stands for the concentration giving half of the maximal effect. For the molecule B1, the “ADCC activity EC50 (Jurkat-NFAT-CD16a luciferase reporter, HEK293T-Claudin18.2 (human) target cells)” value in experiment [1] came out at 0.0465 µg/mL. Moreover, in experiment [1], the “CDC activity EC50 (guinea pig serum killing, CCK8, HEK293T-Claudin18.2 (human) cells)” value amounted to 3.14 µg/mL. For the same molecule, the concentration giving a half-maximal response (EC50) in experiment [2] turned out to be 3.19 µg/mL; in experiment [3] it was 0.292 µg/mL; in experiment [4], 0.941 µg/mL; in experiment [5] it was 0.0134 µg/mL; in experiment [6] it was 0.108 µg/mL; in [7], 0.0112 µg/mL. Further, it took 0.101 µg/mL to reach a half-maximal effect in experiment [9] (EC50). The Maximum signal value turned out to be 114000 in [3] and 0.304 in experiment [10]. In [8], the “Positive rate (%)” value is 0.54%.

B2: ADC formed by conjugation of 25C7A5-HZ1 (antibody, human IgG1, kappa)
heavy: not shown
light: EIVLTQSPATLSLSPGERATLSCKASENVKTYVSWYQQKPGQSPRLLIYEASNRYTGVPARFSGSGSATDFTLTISSLEPEDFAVYFCGQTYSFPPTFGQGTKVEIKRTVAAPSVFIFPPSDEQLKSGTASVVCLLNNFYPREAKVQWKVDNALQSGNSQESVTEQDSKDSTYSLSSTLTLSKADYEKHKVYACEVTHQGLSSPVTKSFNRGEC
modifications: toxin linker conjugated to cysteine sulfhydryl groups after TCEP reduction (positions not given); toxin linker conjugated to cysteine sulfhydryl groups after TCEP reduction (positions not given); DAR 6.82 (B82 batch) or 7.97 (B81 batch)
notes: also called conjugated 25C7A5-HZ1; 25C7A5-HZ1-B82
In the case of B2, the binding result in experiment [11] is reported as “binds”.

B3: ADC formed by conjugation of 25C7A5-HZ2 (antibody, human IgG1, kappa)
heavy: not shown
light: EIVLTQSPATLSLSPGERATLSCKASENVKTYVSWYQQKPGQSPRLLIYEASNRYTGVPARFSGSGSATDFTLTISSLEPEDFAVYFCGQTYSFPPTFGQGTKVEIKRTVAAPSVFIFPPSDEQLKSGTASVVCLLNNFYPREAKVQWKVDNALQSGNSQESVTEQDSKDSTYSLSSTLTLSKADYEKHKVYACEVTHQGLSSPVTKSFNRGEC
modifications: toxin linker conjugated to cysteine sulfhydryl groups after TCEP reduction (positions not given); toxin linker conjugated to cysteine sulfhydryl groups after TCEP reduction (positions not given); DAR 7.10
notes: The label B82 is not explained; also called conjugated 25C7A5-HZ2; 25C7A5-HZ2-B82
Take B3: in experiment [11], the binding result was “binds”.

B4: 25C7A5-HZ2 (antibody, human IgG1, kappa)
heavy: not shown
light: EIVLTQSPATLSLSPGERATLSCKASENVKTYVSWYQQKPGQSPRLLIYEASNRYTGVPARFSGSGSATDFTLTISSLEPEDFAVYFCGQTYSFPPTFGQGTKVEIKRTVAAPSVFIFPPSDEQLKSGTASVVCLLNNFYPREAKVQWKVDNALQSGNSQESVTEQDSKDSTYSLSSTLTLSKADYEKHKVYACEVTHQGLSSPVTKSFNRGEC
notes: Humanized IgG1/kappa
As for B4, the “ADCC activity EC50 (Jurkat-NFAT-CD16a luciferase reporter, HEK293T-Claudin18.2 (human) target cells)” value in experiment [1] came to 0.0488 µg/mL. Besides, the “CDC activity EC50 (guinea pig serum killing, CCK8, HEK293T-Claudin18.2 (human) cells)” value in experiment [1] is 3.28 µg/mL. Moreover, the EC50 in [3] amounted to 0.293 µg/mL; in experiment [5], 0.0148 µg/mL; in experiment [7] it was 0.0112 µg/mL; in experiment [9], 0.122 µg/mL. Moreover, the Maximum signal value was 119000 in [3] and 0.313 in experiment [10]. Further, in [8], the “Positive rate (%)” value came out at 0.55%.
